The nature of series [1]: Thermal stability analysis at 55° C. In kind it is physicochemical. To be noted: after 180 min. The method, then: Briefly, 200 μL of PASylated recombinant protein or L-ASNase (1 mg/mL) was incubated in a thermal cycler (Finepcr, Korea) at 55° C. for 30-180 min. The residual enzymatic activity of the proteins was measured using an asparaginase activity analysis kit as described above. The residual activity (%) at each incubation time was calculated relative to the sample activity at time 0.

For series [2], the system named is CT-26 cells. Briefly: Cell viability (CCK-8) of CT-26 cells. In kind it is cell-based, mouse. The protocol: CT-26 and MC-38 cells (10^4 cells per well) were seeded into three wells of a 96-well plate and incubated at 37° C. The next day, the culture medium was replaced with 100 μL of fresh medium containing the above concentrations of anticancer agents. After incubation at 37° C. for 4 h, the culture medium was removed and the cells were washed three times with PBS. […] Finally, CCK-8 reagent (10 μL/well) was added for 3 h at 37° C., and the amount of color in each sample was measured at OD450.

Series [3] in a line: L-ASNase activity analysis (asparaginase activity kit). In kind it is biochemical. To be noted: 25° C. The method, then: The L-ASNase enzyme activity of the recombinant proteins was measured with an asparaginase activity analysis kit using an OxiRed probe (Abcam, USA). 1 International unit (IU) was defined as the amount of enzyme generating 1.0 μmol of Asp per minute at 25° C.

Series [4] relates to CT-26 cells. Put plainly: Flow cytometry for ecto-CRT exposure in L-ASNase-treated CT-26 cells. In kind it is cell-based, mouse. The settings on record: 200 IU/mL, 24 h. The method, then:
FIG. 6a is a graph showing the analysis of the cytotoxicity enhanced by CRT3LP and CRT4LP in tumor cells treated with ICD-induced anticancer agents and the viability of tumor cells treated with L-ASNases. CT-26 cells (4×10^4) cultured overnight were treated with L-ASNases (200 IU/mL) in 96-well plates and viability was measured at the indicated times. The viability at each time was calculated relative to time 0. Cells were stained with anti-CRT antibodies.
FIG. 6b is a graph representing the results of flow cytometry histogram analysis for ecto-CRT. Filled black lines stained with isotype antibodies; red lines stained with anti-CRT antibodies.

Series [5] can be described thus: In vivo pharmacokinetic analysis. On the set-up: species or system BALB/c mice. The settings on record: 10 IU intravenous, mouse serum. The method, then: Six-week-old female BALB/c mice (Orient Company, Korea) were randomly assigned to different treatment groups (n=3) and intravenously injected with 10 IU of PASylated recombinant protein. Then, blood samples were taken from the eyes at the specified time (0-52 h) and left at 4° C. for 40 min. After centrifugation at 12,000 rpm for 20 min, the serum fraction was obtained and stored at −80° C. before further analysis. PASylated recombinant protein in serum was assessed using the ELISA method described above. The amount of serum recombinant protein was converted to enzyme activity.

Several values for one entry are separate records, joined by “and”; a condition that tells them apart may be missing. Equal values may be shown once.

B1: L-ASNase: L-asparaginase, enzyme that hydrolyzes L-asparagine; purchased from Prospec, used as free control (protein)
chain: LPNITILATGGTIAGGGDSATKSNYTAGKVGVENLVNAVPQLKDIANVKGEQVVNIGSQDMNDDVWLTLAKKINTDCDKTDGFVITHGTDTMEETAYFLDLTVKCDKPVVMVGAMRPSTSMSADGPFNLYNAVVTAADKASANRGVLVVMNDTVLDGRDVTKTNTTDVATFKSVNYGPLGYIHNGKIDYQRTPARKHTSDTPFDVSKLNELPKVGIVYNYANASDLPAKALVDAGYDGIVSAGVGNGNLYKTVFDTLATAAKNGTAVVRSSRVPTGATTQDVEVDDAKYGFVASGTLNPQKARVLLQLALTQTKDPQQIQQIFNQY
modifications: L-asparaginase
notes: L-asparaginase, enzyme that hydrolyzes L-asparagine; purchased from Prospec, used as free control
Consider B1, for which the “residual enzymatic activity, of the initial activity” value in series [1] worked out at 16.4%. The “reduction of cell viability in cells pretreated with anticancer agents” value in series [2] (1 IU/mL, 24 h after pretreatment) was “barely reduced”. Further, in series [2] (200 IU/mL, 24 h, no anticancer pretreatment), the cell viability entry is “progressive decrease in viability”. Also, the “enzymatic activity (specific activity)” value in series [3] was roughly 7.2 IU/nmol. Besides, the “CRT exposure (ecto-CRT)” value in series [4] is “no significant CRT exposure”. The half-life in series [5] is 1.8 h and 1.79 ± 0.22 h.

The values above are taken from patent US20250376507A1, “NOVEL TUMOR ANTIGEN-TARGETING ANTICANCER AGENT” (INDUSTRY FOUNDATION OF CHONNAM NATIONAL UNIVERSITY, priority 2022, published 2025).
